± gives the uncertainty stated by the source.
Test: amyloid nucleation score (Sup35N fusion, yeast selection) (log enrichment); library NNK2; higher = more nucleation; inactive = no reads after selection
Outline: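 Plasmid inserts were Illumina-sequenced at input and output from psi-negative yeast expressing Sup35N fused to peptides of 20 random codons. The yeast were induced with 100 μM copper sulfate for 24 hours and grown 7 days at 30°C on medium lacking adenine and uracil, and sequences with under 100 input reads were excluded. Nucleation score is the DiMSum log enrichment of output over input reads, centred on the mode score of non-aggregating sequences.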

| Substance | amyloid nucleation score |
| --- | --- |
| YISMSMLGCLRTLREVHRDR | 3.21 ± 0.11 |
| MTVNSLFHRLNKLRGILPDR | -0.902 ± 0.48 |
| WSVCARYSSGVCIAHCTQMK | 1.3 ± 0.25 |
| HWSADDNFSSLQRLFVYMGR | 4.583 ± 0.043 |
| RKNSLHTMWMGKMVCSCFKL | 5.69 ± 0.063 |
| RVYEVFGQKATGQMARRSVG | 1.78 ± 0.34 |
| YGNSYRG | -0.044 ± 0.55 |
| SIDEVGTANVPHGDW | 0.741 ± 0.25 |
| VSYEVVINRYFGKHCCGTII | inactive |
| RRFMYIFYLDYFFKPLLRLN | -0.369 ± 1.1 |
| FTVLEHRMFILSYVLRTRVW | 0.468 ± 0.74 |
| TLIGKFRTNNFRSMVDAESK | -0.59 ± 0.63 |
| TYGVLVNIGGWIDTFGWKLK | 6.662 ± 0.049 |
| VYMFCRGGTHEAYFFHTGLC | -0.256 ± 0.79 |
| FSITCADFICYSLVGGERTP | 9.559 ± 0.066 |
| HDTLIMFTYKVVVLLASERF | -0.549 ± 0.63 |
| WLRDYRLWATT | -0.223 ± 0.63 |
| VVLGLDNPIHLIFLKDVNYC | -1.5 ± 1.1 |
| FRLYPVPESKDLGRPGMPRQ | 0.308 ± 0.23 |
| AKGLG | 1.52 ± 0.31 |
| YIAYGDFSSFFTLNIS | 7.476 ± 0.047 |
| LLWQTYIPNAGENAVSSQLF | -0.87 ± 1 |

| Substance | amyloid nucleation score |
| --- | --- |
| SCSVTSAFRWTRCGLLRGIW | -0.048 ± 0.3 |
| TIYPDMETHLV | -0.075 ± 0.49 |
| GYIAYATVWGLQDNGSRSIA | -0.637 ± 0.25 |
| YSWVEPRSRRAVEHDS | 0.551 ± 0.3 |
| GYIGGVSWNISVVVCSS | 2.71 ± 0.11 |
| SCSSLYT | 1.11 ± 0.43 |
| ILLVSATHYSQLNKGRPNDL | 1.43 ± 0.35 |
| LTIRGKVTSTVAMLLDFLDS | 5.86 ± 0.062 |
| TCFVC | 5.746 ± 0.052 |
| GKMPIRNNKVLLKRSATNLC | 5.63 ± 0.067 |
| FLIEFLWSMSACSAPVFLVF | -1.41 ± 1.1 |
| YPSLNDACQP | -0.394 ± 1.1 |
| TRMVCSFRCQESVPEP | 0.775 ± 0.8 |
| GAHFYRTVMNVRSTLSRYIN | -0.507 ± 0.48 |
| GTWKVGQSYVVRVRLFFLLW | -0.369 ± 0.36 |
| VSSPCGRFSFNNNGGKVWTW | -0.111 ± 0.61 |
| FVLCYTTGFLVTFLLEWFFS | 0.228 ± 1 |
| FDMLVNGHVIYRNRKSSSYI | 0.216 ± 0.62 |
| GKITVRDISYVRIWRDSLLY | 3.25 ± 0.1 |
| QSKYVSDPSPPETR | 1.48 ± 0.32 |
| SMMQLCV | -0.043 ± 0.54 |
| NDCMGWH | inactive |

| Substance | amyloid nucleation score |
| --- | --- |
| SVAWVLLWV | 0.636 ± 0.81 |
| NDLSNGSVESMRQYYYLREN | -0.724 ± 0.3 |
| FTNAPVLFVN | inactive |
| TGLNLFRDSQTGELGGGYTR | 5.495 ± 0.049 |
| NLMIKCVGR | -1.05 ± 0.76 |
| IMIFSLVTMLDVNGTIC | 7.477 ± 0.047 |
| PQWWRNLLSKSGTNAADCYL | 0.577 ± 0.57 |
| TFFIMEIFDFC | 1.8 ± 0.15 |
| CLVYVGRVPSRIGDHRITAY | 0.966 ± 0.38 |
| IFAAGYMYIFILVYLLTARG | -0.01 ± 1 |
| VYFLMLDY | -0.526 ± 0.49 |
| DYGWKLMVKVDWFLNGHQ | 4.39 ± 0.048 |
| QNIKIW | -1.02 ± 0.55 |
| GPLGHVGLFV | inactive |
| GQIAKVKPVRWKFKTTTWGS | 1.26 ± 0.41 |
| ILDSGVRYVFMRWLIGYCND | -0.513 ± 0.33 |
| MSLSNDHSGAVWRRAFGYSE | 0.51 ± 0.51 |
| VADHVCFVCRHTLDP | -0.317 ± 0.62 |
| CESHVSRWYSVS | 0.505 ± 0.27 |
| HVAEEVMGIVARVRVLMILS | -0.598 ± 0.45 |
| RYPFFEMVRSTMQSMIENQ | 0.612 ± 0.3 |
| IFRNWGYSTFSHE | inactive |

| Substance | amyloid nucleation score |
| --- | --- |
| TALATDTSFRRSRRQTNQIF | 0.706 ± 0.54 |
| YLEFSPTSITWGAPLERYST | inactive |
| GGVHGGFRSYVVAIWYGMLN | -1.37 ± 1.1 |
| HGGQRMCAGCV | 0.865 ± 0.31 |
| ERVNKFLWGGFSERLRLMSQ | 0.51 ± 0.65 |
| GICRKNDRTSDQRYFVKSL | -0.575 ± 0.53 |
| NFVNSFRVPISVYKVYLYGG | 4.49 ± 0.08 |
| TLWEGVFKRSWLGVSGSKVE | 0.401 ± 0.23 |
| VRIFSVCYKHLMGHCSSSA | -0.398 ± 0.31 |
| ISGLETYLRSYWICIWSMWA | 3.02 ± 0.15 |
| WGTDISYMGRSGCTLSGCIY | -1.13 ± 0.55 |
| CYVRI | -0.603 ± 1.1 |
| CYVDFSYLVNKFYWGPRWMP | -0.049 ± 0.5 |
| ALFTLRVMLTTYYWQGMAEF | 0.296 ± 0.31 |
| ANRWSMQGSERASSANWHRW | 4.63 ± 0.054 |
| KVESVKHRQNKGFYCWLVRN | -1.25 ± 0.75 |
| MCTGVPINGFWVCPYDQSGK | 0.108 ± 0.33 |
| FEAVDWFKL | -0.603 ± 0.74 |
| SFNTLCLRKC | -0.65 ± 0.37 |
